Assay results: patent US20190367631A1 (Regeneron, published 2019)

Legend:
[1] = biological target: T1, full length human MSR1 with a C-terminal Myc tag, on HEK293.Myc.hMSR1 cells (human, UniProt P21757 1-451); assay: ECL cell binding, HEK293.Myc.hMSR1 cells, 11 nM
T1 construct: whole, on cells; stably expressed on engineered HEK293 cells; not shown: C-terminal Myc tag
T1 sequence (looked up): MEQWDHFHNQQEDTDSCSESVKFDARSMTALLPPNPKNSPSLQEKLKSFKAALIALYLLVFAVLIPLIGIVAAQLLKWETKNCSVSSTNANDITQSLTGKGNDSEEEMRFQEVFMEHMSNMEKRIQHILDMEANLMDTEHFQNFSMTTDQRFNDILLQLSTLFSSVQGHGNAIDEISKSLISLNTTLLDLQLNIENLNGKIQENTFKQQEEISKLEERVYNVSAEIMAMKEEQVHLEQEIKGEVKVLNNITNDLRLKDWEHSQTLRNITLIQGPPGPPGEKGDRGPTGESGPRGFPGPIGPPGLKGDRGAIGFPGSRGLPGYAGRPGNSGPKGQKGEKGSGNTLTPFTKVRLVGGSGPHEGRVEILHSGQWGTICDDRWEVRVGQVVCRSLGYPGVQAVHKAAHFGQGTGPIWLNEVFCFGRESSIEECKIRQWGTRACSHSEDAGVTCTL

[2] = biological target: T2, full length monkey MSR1 on HEK293.mfMSR1 cells (Macaca fascicularis, UniProt A0A2K5UWE2 1-451); assay: ECL cell binding, HEK293.mfMSR1 cells, 11 nM
T2 construct: whole, on cells
T2 sequence: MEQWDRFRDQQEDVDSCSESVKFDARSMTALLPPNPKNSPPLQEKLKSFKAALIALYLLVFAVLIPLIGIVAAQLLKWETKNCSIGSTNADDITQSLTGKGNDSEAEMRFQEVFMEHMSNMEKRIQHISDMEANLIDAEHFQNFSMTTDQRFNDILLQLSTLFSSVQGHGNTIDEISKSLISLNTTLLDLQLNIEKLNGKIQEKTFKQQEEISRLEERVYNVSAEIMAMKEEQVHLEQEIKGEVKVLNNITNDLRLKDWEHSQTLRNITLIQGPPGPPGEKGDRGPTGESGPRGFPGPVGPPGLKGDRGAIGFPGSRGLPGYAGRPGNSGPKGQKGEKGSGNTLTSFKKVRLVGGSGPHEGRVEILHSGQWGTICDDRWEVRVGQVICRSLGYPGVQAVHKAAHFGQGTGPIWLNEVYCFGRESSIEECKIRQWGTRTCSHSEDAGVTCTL

[3] = biological target: T1, full length human MSR1 with a …; assay: cell-based or functional assay
[4] = biological target: T3, mouse MSR1 on RAW264.7 cells (mouse, UniProt P30204 1-458); assay: flow cytometry, RAW264.7 cells
T3 construct: whole, on cells; also called MSR1 positive RAW264.7 cells
T3 sequence (looked up): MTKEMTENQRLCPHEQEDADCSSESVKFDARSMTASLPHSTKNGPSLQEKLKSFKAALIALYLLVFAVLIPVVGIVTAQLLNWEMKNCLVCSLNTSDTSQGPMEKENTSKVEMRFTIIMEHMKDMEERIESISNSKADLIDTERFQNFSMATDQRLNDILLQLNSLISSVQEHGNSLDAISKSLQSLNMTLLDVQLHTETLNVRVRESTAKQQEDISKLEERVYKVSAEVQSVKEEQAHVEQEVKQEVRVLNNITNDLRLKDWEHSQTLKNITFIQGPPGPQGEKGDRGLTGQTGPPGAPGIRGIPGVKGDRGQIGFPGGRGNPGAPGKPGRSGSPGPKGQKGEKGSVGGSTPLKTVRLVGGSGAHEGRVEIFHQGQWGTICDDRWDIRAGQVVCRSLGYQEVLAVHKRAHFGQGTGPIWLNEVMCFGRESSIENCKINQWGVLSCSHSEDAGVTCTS
Protocol: To block binding to Fc receptors, RAW264.7 cells were incubated for 30 minutes at 4° C. with 500 pg/mL mouse IgG (Jackson ImmunoResearch, Cat #015-000-003) diluted in staining buffer, while B16F10.9 cells remained in staining buffer. […] The signal to noise (S/N) was determined by calculating the ratio of the anti-MSR1 antibodies or the control antibodies MFI to the unstained sample MFI (Table 11).

[5] = biological target: T4, human MSR1 extracellular domain expressed with a N-terminal nonahistidine tag (human, UniProt P21757 77-451); assay: competition ELISA, plate-coated His9-hMSR1; 300 nM antibody, competitor ligand biot-AGE-BSA
T4 construct: extracellular domain; also called His9-hMSR1; His-hMSR1
T4 sequence: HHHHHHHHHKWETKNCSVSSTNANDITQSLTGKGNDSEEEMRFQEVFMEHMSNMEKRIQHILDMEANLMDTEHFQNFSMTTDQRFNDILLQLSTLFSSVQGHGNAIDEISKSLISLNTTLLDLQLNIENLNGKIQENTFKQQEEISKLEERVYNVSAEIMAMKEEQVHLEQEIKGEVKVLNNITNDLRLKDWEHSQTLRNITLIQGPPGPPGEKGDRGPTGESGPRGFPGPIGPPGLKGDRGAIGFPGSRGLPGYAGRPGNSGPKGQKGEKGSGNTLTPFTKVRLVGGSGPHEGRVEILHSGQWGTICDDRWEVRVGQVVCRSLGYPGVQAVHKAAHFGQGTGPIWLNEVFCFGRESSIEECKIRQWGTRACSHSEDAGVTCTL
Protocol: (§1) Buffer alone was also added to wells on each coat. […] This assay was conducted in four different assay runs.
(§2) Data analysis was performed using a sigmoidal dose-response model within Prism™ software (GraphPad).

[6] = biological target: T4, human MSR1 extracellular domain …; assay: competition ELISA, plate-coated His9-hMSR1; 100 nM antibody, competitor ligand Ac-LDL
Protocol: as §1, §2

[7] = biological target: T4, human MSR1 extracellular domain …; assay: competition ELISA, plate-coated His9-hMSR1; 1 µM antibody, competitor ligand 10 nM Ox-LDL
Protocol: as §1, §2

| Binder | ratio of binding signal (RLU) to isotype control [1] | ratio of binding signal (RLU) to isotype control [2] | % Inhibition of Dil-Oxidized LDL uptake [3] | IC50 of Dil-Oxidized LDL uptake inhibition [3] | MFI [4] | S/N (MFI over unstained MFI) [4] | % Inhibition of Dil-Acetylated LDL uptake [3] | IC50 of Dil-Acetylated LDL uptake inhibition [3] | % Blocking [5] | % Blocking [6] | % Blocking [7] |
| --- | --- | --- | --- | --- | --- | --- | --- | --- | --- | --- | --- |
| H1H27739P-N297Q (antibody, human IgG1, V domains shown, human IgG1 Fc with N297Q) VH: EVQLVESGGGLVQPGGSLRLSCTASGFTFSSYAMSWVRQAPGKGLEWVSAISGTGSSTYFTDSVKGRFAISRDNSKNTLYLQMNSLRAEDTAVYYCAKDGEWLSTVTLFDYWGQGTLVTVSS VL: EIVMTQSPATLSVSPGERATLSCRASQSVSSNLAWYQQKPGQAPRLLIYGASTRATGIPARFSGSGSGTDFTLTISSLQSEDFALYYCQQYFIWPPHPTFGPGTKVDIKR | 22 fold | 20 fold | 55% | > 100 nM | 3270 MFI | 1 |  |  |  |  |  |
| H1H27751P-N297Q (antibody, human IgG1, V domains shown, human IgG1 Fc with N297Q) VH: EVQLVESGGGLVQPGGSLRLSCAASGFTFSNYAMHWVRQAPGKGLEYVSAISSNGGSTYYADSVKGRITISRDNSKNTLYLQMGSLRAEDMAVYYCARGRPYYYYFGMDVWGQGTTVTVSS VL: not shown | 63 fold | 49 fold | 85% | 2.9 nM | 3820 MFI | 1 | 59% | 1.6 nM |  |  |  |
| H1H21234N (antibody, human IgG1, V domains shown, original human IgG1 Fc) VH: QVQLQESGPGLVKPSETLSLTCTVTGGSISRNYWSWIRQPPGKGLEWIGYIYYSGSIDYNPSLKSRVTISVDTSKNQFSLKLSSMTAADTAVYYCARDRWNWKYGMDVWGQGTTVIVSS VL: EIVLTQSPGTLSLSPGERATLSCRASQTVRNNYLAWYHQKPGQAPRLLIYGASSRATGIPDRFSGSGSGTDFTLTISRLEPEDFTVYYCHQYGNSPWTFGQGTKMEIKR | 32 fold | 31 fold | 64% | 4.3 nM |  |  | 36% | 0.71 nM |  |  |  |
| H1H27756P-N297Q (antibody, V domains shown, Human IgG1 Fc with N297Q) VH: QVQLVESGGGVVQPGRSLRLSCAASGFTFSNYDMHWVRQAPGKGLEWMAVISYDGINKYYADSVKGRFTISRDNSKNTLYLQMNSLRAEDTAVYYCAKGTYSWYFDLWGRGTLVTVSS VL: not shown |  |  |  |  |  |  |  |  | -8% | -54% | -45% |
| H1H27759P2-N297Q (antibody, human IgG1, V domains shown, Human IgG1 Fc with N297Q; also called H1H27759P-N297Q) VH: EVQLVESGGGFVQPGGSLRLSCAASGFTFSSYAMSWVRQAPGKGLEWVSAISGTGSNTYYADSVKGRFTISRDNSKNTLYLQMNSLRAEDTAVYYCAKDRVTTVTYYFDYWGQGTLVTVSS VL: not shown |  |  |  |  |  |  |  |  | -19% | -45% | -62% |
| H1H27760P2-N297Q (antibody, V domains shown, Human IgG1 Fc with N297Q; also called H1H27760P-N297Q) VH: EVQLVESGGGLVQPGRSLRLSCAASGFTFDAYAMHWVRQAPGKGLEWVSGISWNSGSIGYADSVKGRFTISRDNAKNSLYLQMNSLREEDTALYYCAKDKILELYYYGMDVWGQGTTVTVSS VL: not shown |  |  |  |  |  |  |  |  | -4% | -43% | -47% |
| H1H27761P2-N297Q (antibody, V domains shown, Human IgG1 Fc with N297Q; also called H1H27761P-N297Q) VH: EVQLVESGGDLVQPGGSLRLSCSASGFTFNIYAMSWVRQAPGKGLEWVSGISGSGGSTYYADSVKGRFTISRDNSKNTLYFQMNSLRVEDTAVYYCAKKISSSSYYYYAMDVWGQGTTVTVSS VL: not shown |  |  |  |  |  |  |  |  | -4% | -36% | -21% |

Second part, the binder after the results:

| ratio of binding signal (RLU) to isotype control [1] | ratio of binding signal (RLU) to isotype control [2] | % Inhibition of Dil-Oxidized LDL uptake [3] | IC50 of Dil-Oxidized LDL uptake inhibition [3] | MFI [4] | S/N (MFI over unstained MFI) [4] | % Inhibition of Dil-Acetylated LDL uptake [3] | IC50 of Dil-Acetylated LDL uptake inhibition [3] | % Blocking [5] | % Blocking [6] | % Blocking [7] | Binder |
| --- | --- | --- | --- | --- | --- | --- | --- | --- | --- | --- | --- |
| 78 fold | 27 fold | 26% | > 100 nM |  |  |  |  |  |  |  | H2aM21229N (antibody, mouse IgG2a, V domains shown, mouse IgG2a Fc) VH: EVQLVESGGGLVKPGGSLRLSCAASGFTFSRYSMNWVRQAPGKGLEWVSSISSSSSYIYYGDTVKGRFTISRDNAKKSLYLQMNSLRAEDTAVYYCVRDRGQLVLYFDYWGQGTLVTVSS VL: DIQMTQSPASLSTSIRDRVTITCRASLSISSFLNWFQQRPGKAPKLLIYVASNLQSGVPSRFSDSGSGTDFTLTISSLQPEDFATYYCQQNYSTPPITFGQGTRLEIK |
| 26 fold | 24 fold |  |  |  |  |  |  |  |  |  | H1xH29283P2 (antibody, V domains shown) VH: QVQLVQSGTEVKKPGSSVKVSCKASGGTFSRYTFSWVRQAPGQGLEWMGGIIPIFGTTNYAQKFQGRVTITTDESTSTVYMELSSLRSEDTAVYYCTRGGRYGWFDPWGQGTLVTVSS VL: not shown |
| 35 fold | 45 fold | 69% | > 16 nM |  |  | 40% | > 170 nM |  |  |  | H2aM25695N (antibody, mouse IgG2a, V domains shown, mouse IgG2a Fc) VH: QVQLQESGPGLVKPSETLSLTCTVTGGSISRNYWSWIRQPPGKGLEWIGYIYYSGSINYNPSLKSRVTISVDMSKNQFSLKLNSVTAADTAVYYCARDRWNWKYGMDVWGQGTTVIVSS VL: EIVLTQSPGTLSLSPGERATLSCRASQTVRNSYLAWYHQKPGQAPRLLIYGASSRATGIPDRFSGSGSGTDFTLTISRLEPEDFAVYYCQQYGSSYWTFGQGTKMEIKR |
| 66 fold | 60 fold | 79% | 3.1 nM |  |  | 10% | > 100 nM |  |  |  | H2aM21228N (antibody, mouse IgG2a, V domains shown, mouse IgG2a Fc) VH: VQLVESGGGLVQPGGSLRLSCAASGFTFSDHYMDWVRQAPGKGLEWVGRTRNKANSHTTEYAASVSGRFTISRDDSKNSLYLQMNSLKTEDTAVYYCTRAGIIGTLFDYWGQGTLVTVSS VL: not shown |
|  |  |  |  |  |  |  |  | -16% | -58% | -65% | H1H27762P2-N297Q (antibody, V domains shown, Human IgG1 Fc with N297Q; also called H1H27762P-N297Q) VH: QVQLVQSGAEVKKPGSSVKVSCKASGGTFSRYDISWVRQAPGQGLEWMGGIIPIFGTSNYAQKFQGRVTITTDESTSTVYMELSSLRSEDTAVYYCARGGRYGWFDPWGQGTLVTVSS VL: not shown |
| 22 fold | 21 fold |  |  |  |  |  |  |  |  |  | H1xH27759P2 (antibody, V domains shown) VH: EVQLVESGGGFVQPGGSLRLSCAASGFTFSSYAMSWVRQAPGKGLEWVSAISGTGSNTYYADSVKGRFTISRDNSKNTLYLQMNSLRAEDTAVYYCAKDRVTTVTYYFDYWGQGTLVTVSS VL: not shown |
